Reference: paper PMC6522346 (Science (New York, N.Y.), 2018)

Columns and labels:
Assay in all cases: native MS
[1] = target: Anchor Cell Fusion Failure protein 1
[2] = target: complex IV
[3] = target: complex III (Bos taurus (endogenous in bovine mitochondria)) (UniProt P00157)
[4] = target: the molecule itself

complex III, sequence (P00129 whole entry, looked up): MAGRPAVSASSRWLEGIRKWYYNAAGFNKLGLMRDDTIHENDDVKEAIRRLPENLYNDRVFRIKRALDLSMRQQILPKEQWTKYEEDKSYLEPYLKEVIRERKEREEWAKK
complex III, sequence (P00157 whole entry, looked up): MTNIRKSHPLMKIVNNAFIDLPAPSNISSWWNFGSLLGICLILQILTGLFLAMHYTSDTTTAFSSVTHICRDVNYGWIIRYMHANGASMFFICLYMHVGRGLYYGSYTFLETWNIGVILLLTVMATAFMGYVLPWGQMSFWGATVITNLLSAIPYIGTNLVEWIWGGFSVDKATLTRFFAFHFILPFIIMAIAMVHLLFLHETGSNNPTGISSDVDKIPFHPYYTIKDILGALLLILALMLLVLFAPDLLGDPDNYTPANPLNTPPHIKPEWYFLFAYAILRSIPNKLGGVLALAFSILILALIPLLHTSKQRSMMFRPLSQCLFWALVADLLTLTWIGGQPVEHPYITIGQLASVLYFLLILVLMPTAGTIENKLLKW

Molecule	stoichiometry N [4]	other results
Anchor Cell Fusion Failure protein 1 (natural protein)		stoichiometry N [1]: 2
complex IV		stoichiometry N [2]: 2
complex III (from UniProt P00157;P00129)		stoichiometry N [3]: 2
CyoB (natural protein) MFGKLSLDAVPFHEPIVMVTIAGIILGGLALVGLITYFGKWTYLWKEWLTSVDHKRLGIMYIIVAIVMLLRGFADAIMMRSQQALASAGEAGFLPPHHYDQIFTAHGVIMIFFVAMPFVIGLMNLVVPLQIGARDVAFPFLNNLSFWFTVVGVILVNVSLGVGEFAQTGWLAYPPLSGIEYSPGVGVDYWIWSLQLSGIGTTLTGINFFVTILKMRAPGMTMFKMPVFTWASLCANVLIIASFPILTVTVALLTLDRYLGTHFFTNDMGGNMMMYINLIWAWGHPEVYILILPVFGVFSEIAATFSRKRLFGYTSLVWATVCITVLSFIVWLHHFFTMGAGANVNAFFGITTMIIAIPTGVKIFNWLFTMYQGRIVFHSAMLWTIGFIVTFSVGGMTGVLLAVPGADFVLHNSLFLIAHFHNVIIGGVVFGCFAGMTYWWPKAFGFKLNETWGKRAFWFWIIGFFVAFMPLYALGFMGMTRRLSQQIDPQFHTMLMIAASGAVLIALGILCLVIQMYVSIRDRDQNRDLTGDPWGGRTLEWATSSPPPFYNFAVVPHVHERDAFWEMKEKGEAYKKPDHYEEIHMPKNSGAGIVIAAFSTIFGFAMIWHIWWLAIVGFAGMIITWIVKSFDEDVDYYVPVAEIEKLENQHFDEITKAGLKNGN	2	
ExbB (natural protein) MGNNLMQTDLSVWGMYQHADIVVKCVMIGLILASVVTWAIFFSKSVEFFNQKRRLKREQQLLAEARSLNQANDIAADFGSKSLSLHLLNEAQNELELSEGSDDNEGIKERTSFRLERRVAAVGRQMGRGNGYLATIGAISPFVGLFGTVWGIMNSFIGIAQTQTTNLAVVAPGIAEALLATAIGLVAAIPAVVIYNVFARQIGGFKAMLGDVAAQVLLLQSRDLDLEASAAAHPVRVAQKLRAG	5	
MdtB (natural protein) MQVLPPSSTGGPSRLFIMRPVATTLLMVAILLAGIIGYRALPVSALPEVDYPTIQVVTLYPGASPDVMTSAVTAPLERQFGQMSGLKQMSSQSSGGASVITLQFQLTLPLDVAEQEVQAAINAATNLLPSDLPNPPVYSKVNPADPPIMTLAVTSTAMPMTQVEDMVETRVAQKISQISGVGLVTLSGGQRPAVRVKLNAQAIAALGLTSETVRTAITGANVNSAKGSLDGPSRAVTLSANDQMQSAEEYRQLIIAYQNGAPIRLGDVATVEQGAENSWLGAWANKEQAIVMNVQRQPGANIISTADSIRQMLPQLTESLPKSVKVTVLSDRTTNIRASVDDTQFELMMAIALVVMIIYLFLRNIPATIIPGVAVPLSLIGTFAVMVFLDFSINNLTLMALTIATGFVVDDAIVVIENISRYIEKGEKPLAAALKGAGEIGFTIISLTFSLIAVLIPLLFMGDIVGRLFREFAITLAVAILISAVVSLTLTPMMCARMLSQESLRKQNRFSRASEKMFDRIIAAYGRGLAKVLNHPWLTLSVALSTLLLSVLLWVFIPKGFFPVQDNGIIQGTLQAPQSSSFANMAQRQRQVADVILQDPAVQSLTSFVGVDGTNPSLNSARLQINLKPLDERDDRVQKVIARLQTAVDKVPGVDLFLQPTQDLTIDTQVSRTQYQFTLQATSLDALSTWVPQLMEKLQQLPQLSDVSSDWQDKGLVAYVNVDRDSASRLGISMADVDNALYNAFGQRLISTIYTQANQYRVVLEHNTENTPGLAALDTIRLTSSDGGVVPLSSIAKIEQRFAPLSINHLDQFPVTTISFNVPDNYSLGDAVQAIMDTEKTLNLPVDITTQFQGSTLAFQSALGSTVWLIVAAVVAMYIVLGILYESFIHPITILSTLPTAGVGALLALLIAGSELDVIAIIGIILLIGIVKKNAIMMIDFALAAEREQGMSPREAIYQACLLRFRPILMTTLAALLGALPLMLSTGVGAELRRPLGIGMVGGLIVSQVLTLFTTPVIYLLFDRLALWTKSRFARHEEEA	2	
adenine nucleotide translocase 1 (natural protein) MSDQALSFLKDFLAGGVAAAISKTAVAPIERVKLLLQVQHASKQISAEKQYKGIIDCVVRIPKEQGFLSFWRGNLANVIRYFPTQALNFAFKDKYKQIFLGGVDRHKQFWRYFAGNLASGGAAGATSLCFVYPLDFARTRLAADVGKGAAQREFTGLGNCITKIFKSDGLRGLYQGFNVSVQGIIIYRAAYFGVYDTAKGMLPDPKNVHIIVSWMIAQTVTAVAGLVSYPFDTVRRRMMMQSGRKGADIMYTGTVDCWRKIAKDEGPKAFFKGAWSNVLRGMGGAFVLVLYDEIKKFV	2	
